Test results published in patent US10294520B2, “Nicotiana nucleic acid molecules and uses thereof” (U.S. Smokeless Tobacco Company LLC, priority 2004, dated 2019).

Legend:
[1] = biological target: T1, tobacco nicotine demethylase (D121-AA8) (Nicotiana tabacum, UniProt Q38Q87); experiment: Nicotine demethylase activity assay with yeast microsomal preparations; details: for nornicotine produced from the demethylation of nicotine (HPLC and LSC): microsomal samples from yeast cells expressing the p450
T1 sequence (Q38Q87 with tags, fused parts or gaps): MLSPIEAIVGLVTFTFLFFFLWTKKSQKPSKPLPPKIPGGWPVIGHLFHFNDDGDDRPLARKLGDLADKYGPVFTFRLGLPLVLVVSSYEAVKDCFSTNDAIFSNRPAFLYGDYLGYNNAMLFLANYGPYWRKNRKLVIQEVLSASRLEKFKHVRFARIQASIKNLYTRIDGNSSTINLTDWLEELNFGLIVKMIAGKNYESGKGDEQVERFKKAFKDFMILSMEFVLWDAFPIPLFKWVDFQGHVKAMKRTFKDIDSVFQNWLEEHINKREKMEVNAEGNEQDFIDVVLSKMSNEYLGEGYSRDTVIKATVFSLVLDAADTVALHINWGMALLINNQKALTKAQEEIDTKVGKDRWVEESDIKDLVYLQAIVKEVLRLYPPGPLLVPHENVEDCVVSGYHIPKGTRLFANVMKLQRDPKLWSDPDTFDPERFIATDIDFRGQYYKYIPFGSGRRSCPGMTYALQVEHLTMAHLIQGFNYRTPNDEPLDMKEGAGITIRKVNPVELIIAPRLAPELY
Method: After induction by galactose for 20 hours, yeast cells were collected by centrifugation and washed twice with TES-M buffer (50 mM Tris-HCl, pH 7.5, 1 mM EDTA, 0.6 M sorbitol, 10 mM 2-mercaptoethanol). The pellet was resuspended in extraction buffer (50 mM Tris-HCl, pH 7.5, 1 mM EDTA, 0.6 M sorbitol, 2 mM 2-mercaptoethanol, 1% bovine serum album, Protease Inhibitor Cocktail (Roche) at 1 tablet/50 ml). Cells were then broken with glass beads (0.5 mm in diameter, Sigma) and the cell extract was centrifuged for 20 min at 20,000×g to remove cellular debris. The supernatant was subjected to ultracentrifugation at 100,000×g for 60 min and the resultant pellet contained the microsomal fraction. The microsomal fraction was suspended in TEG-M buffer (50 mM Tris-HCl, pH 7.5, 1 mM EDTA, 20% glycerol and 1.5 mM 2-mercaptoethanol) at protein concentration of 1 mg/mL. Microsomal preparations were stored in a liquid nitrogen freezer until use.
Nicotine demethylase activity assays with yeast microsomal preparations were performed. […] Chlorpromazine (CPZ) and oxidized cytochrome c (cyt. C), both P450 inhibitors, were purchased from Sigma. […] NADPH was omitted for control incubation. The routine enzyme assay included microsomal proteins (around 1 mglrnl), 6 mM NADPH, and 55 μM ^14C labeled nicotine. […] C, when used, was 1 mM and 100 μM, respectively. The reaction was carried at 25° C. for 1 hour and was stopped with the addition of 300 μM methanol to each 25 μl reaction mixture. After centrifugation, 20 μl of the methanol extract was separated with a reverse-phase High Performance Liquid Chromatography (HPLC) system (Agilent) using an Inertsil ODS-3 3μ (150×4.6 mm) chromatography column from Varian. The isocratic mobile phase was the mixture of methanol and 50 mM potassium phosphate buffer, pH 6.25, with ratio of 60:40 (v/v) and the flow rate was 1 ml/min. The nornicotine peak, as determined by comparison with authentic non-labeled nornicotine, was collected and subjected to 2900 tri-carb Liquid ScintlDation Counter (LSC) (Perkin Elmer) for quantification. The activity of nicotine demethylase is calculated based on the production of ^14C labeled nornicotine over 1 hour incubation.

[2] = biological target: T2, nicotine demethylase activity in the transformed yeast cells (Nicotiana tabacum, UniProt Q38Q87); experiment: In vivo enzyme assay: feeding transformed yeast culture with 14C labeled nicotine; type: cell-based; details: WAT11 yeast, galactose-induced culture, 55 μM 14C nicotine, 6 hours
T2 construct: expressed in transfected cells; host or cells: Saccharomyces cerevisiae WAT11 transformed with pYeDP60-p450 cDNA plasmid, galactose-induced culture
T2 sequence (Q38Q87 with tags, fused parts or gaps): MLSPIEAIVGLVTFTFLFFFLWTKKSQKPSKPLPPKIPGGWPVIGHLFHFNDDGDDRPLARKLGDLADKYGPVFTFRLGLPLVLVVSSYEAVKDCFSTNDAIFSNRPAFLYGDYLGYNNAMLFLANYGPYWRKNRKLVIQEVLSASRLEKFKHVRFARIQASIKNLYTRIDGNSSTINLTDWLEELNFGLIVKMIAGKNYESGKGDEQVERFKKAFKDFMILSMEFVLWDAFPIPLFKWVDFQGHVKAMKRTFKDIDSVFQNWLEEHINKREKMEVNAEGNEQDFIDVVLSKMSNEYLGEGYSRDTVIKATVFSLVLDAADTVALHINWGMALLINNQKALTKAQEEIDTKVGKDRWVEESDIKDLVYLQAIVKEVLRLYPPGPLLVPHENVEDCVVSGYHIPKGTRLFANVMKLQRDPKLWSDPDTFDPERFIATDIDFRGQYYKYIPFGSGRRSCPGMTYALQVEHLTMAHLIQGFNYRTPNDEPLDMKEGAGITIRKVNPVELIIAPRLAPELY
Method: Single yeast colonies were used to inoculate 30 mL SGI media (5 g/L bactocasamino acids, 6.7 g/L yeast nitrogen base without amino acids, 20 g/L glucose, 40 mg/L DL-tryptophan) and grown at 30° C. for about 24 hours. An aliquot of this culture was diluted 1:50 into 1000 mL of YPGE media (10 g/L yeast extract, 20 g/L bacto peptone, 5 g/L glucose, 30 ml/L ethanol) and grown until glucose was completely consumed as indicated by the colorimetric change of a Diastix urinalysis reagent strip (Bayer, Elkhart, Ind.). Induction of cloned P450 was initiated by adding DL-galactose to a final concentration of 2%. The cultures were grown for an additional 20 hours before used for in vivo activity assay or for microsome preparation.
WAT11 yeast cells expressing pYeDP60-CYP71D20 (a p450 catalyzing the hydroxylation of 5-epi-aristolochene and 1-deoxycapsidiol in Nicotiana tabacum) were used as control for the p450 expression and enzyme activity assays.
The nicotine demethylase activity in the transformed yeast cells were assayed by feeding of yeast culture with DL-Nicotine (Pyrrolidine-2-^14C). ^14C labeled nicotine (54 mCi/mmol) was added to 75 μl of the galactose-induced culture for a final concentration of 55 μM. […] After spinning, 20 μl of the methanol extract was separated with an rp-HPLC and the nornicotine fraction was quantitated by LSC.

CN(C)CCCN1c2ccccc2Sc2ccc(Cl)cc21 [Chlorpromazine, reference compound]
effect on nicotine demethylase activity of D121-AA8 microsomes ([1]; Chlorpromazine 1 mM, incubated for 1 hour): decreased significantly

B1: Control (CYP71D20): a p450 catalyzing the hydroxylation of 5-epi-aristolochene and 1-deoxycapsidiol in Nicotiana tabacum, used as control (protein, UniProt Q94FM7 1-504, looked up)
5-epiaristolochene …: MQFFSLVSIFLFLSFLFLLRKWKNSNSQSKKLPPGPWKIPILGSMLHMIGGEPHHVLRDLAKKYGPLMHLQLGEISAVVVTSRDMAKEVLKTHDVVFASRPKIVAMDIICYNQSDIAFSPYGDHWRQMRKICVMELLNAKNVRSFSSIRRDEVVRLIDSIRSDSSSGELVNFTQRIIWFASSMTCRSAFGQVLKGQDIFAKKIREVIGLAEGFDVVDIFPTYKFLHVLSGMKRKLLNAHLKVDAIVEDVINEHKKNLAAGKSNGALGGEDLIDVLLRLMNDTSLQFPITNDNIKAVIVDMFAAGTETSSTTTVWAMAEMMKNPSVFTKAQAEVREAFRDKVSFDENDVEELKYLKLVIKETLRLHPPSPLLVPRECREDTDINGYTIPAKTKVMVNVWALGRDPKYWDDAESFKPERFEQCSVDFFGNNFEFLPFGGGRRICPGMSFGLANLYLPLAQLLYHFDWKLPTGIMPRDLDLTELSGITIARKGGLYLNATPYQPSRE
conversion of nicotine to nornicotine in yeast culture [2]: did not convert nicotine to nornicotine
nornicotine produced from the demethylation of nicotine (HPLC and LSC) [1]: did not show any nornicotine conversion formation
Demethylase activity, Microsomes + 100 μM cytochrome C ([1]; yeast microsomes with 100 μM oxidized cytochrome c, n = 3): Not Detected
Demethylase activity, Microsomes + 1 mM chlorpromazine ([1]; yeast microsomes with 1 mM chlorpromazine, n = 3): Not Detected
Demethylase activity, Microsomes ([1]; yeast microsomes, 6 mM NADPH, 55 μM 14C labeled nicotine, 25° C., 1 hour, n = 12): Not Detected

B2: D208-AD9: test p450 from a full-length tobacco clone, expressed in yeast (protein, listed as Nicotiana tabacum)
chain: MLSPIEAIVGLVTFTFLFFFLWTKKSQKPSKPLPPKIPGGWPVIGHLFHFNDDGDDRPLARKLGDLADKYGPVFTFRLGLPLVLVVSSYEAVKDCFSTNDAIFSNRPAFLYGDYLGYNNAMLFLANYGPYWRKNRKLVIQEVLSASRLEKFKHVRFARIQASMKNLYTRIDGNSSTINLTDWLEELNFGLIVKMIAGKNYESGKGDEQVERFKKAFKDFMILSMEFVLWDAFPIPLFKWVDFQGHVKAMKRTFKDIDSVFQNWLEEHINKREKMEVNAEGNEQDFIDVVLSKMSNEYLGEGYSRDTVIEATVFSLVLDAADTVALHINWGMALLINNQKALTKAQEEIDTKVCKDRWVEESDIKDLVYLQAIVKEVLRLYPPGPLLVPHENVEDCVVSGYHIPKGTRLFANVMKLQRDPKLWSDPDTFDPERFIATDIDFRGQYYKYIPFGPGRRSCPGMTYALQVEHLTMAHLIQGFNYRTPNDEPLDMKEGAGITIRKVNPVELIIAPRLAPELY
nornicotine produced from the demethylation of nicotine (HPLC and LSC) [1]: did not show any nornicotine conversion formation
